Measured values reported in the supplement of paper PMC9428881.
± gives the standard error.

Experiment: background-corrected fluorescence of 3'-dye-labeled ssDNA relative to brightest sequence (3'-GCGCG) (fraction); higher = brighter dye fluorescence (less quenching)
How it was run: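 Single-stranded DNA was built on glass slides by light-directed phosphoramidite synthesis, ending in a 3' Cy3 or Cy5 dye beside each of 1024 permuted pentamers. Arrays were washed in acetonitrile for 2 h at r.t., then scanned at 532 or 635 nm before and after overnight ethylenediamine/ethanol deprotection. Each value averages 10 features per array and at least 3 syntheses. Fluorescence, corrected by subtracting unlabeled-oligo background, is scaled to the brightest sequence.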

**Q.** With “TTTTTTCATGCTCAGCATGATTTTTTTTTTTTTTTGAGTC [CTGAG]” as the sequence, how does the background-corrected fluorescence (dye: Cy3 (3' terminal)) read?
**A.** The background-corrected fluorescence was 0.469 ± 0.015.

**Q.** What about the background-corrected fluorescence (dye: Cy5 (3' terminal)) of the same sequence?
**A.** The background-corrected fluorescence was 0.359 ± 0.017.

**Q.** With “TTTTTTCATGCTGCGCATGCTTTTTTTTTTTTTTTGAATA [ATAAG]” as the sequence, how does the background-corrected fluorescence (dye: Cy3 (3' terminal)) read?
**A.** The background-corrected fluorescence was 0.553 ± 0.025.

**Q.** What about the background-corrected fluorescence (dye: Cy5 (3' terminal)) of the same sequence?
**A.** The background-corrected fluorescence was 0.42 ± 0.053.

**Q.** Which results are given for “TTTTTTGCTGAGCATGCTGCTTTTTTTTTTTTTTTACTAA [AATCA]”?
**A.** background-corrected fluorescence (dye: Cy3 (3' terminal)): 0.522 ± 0.0087; background-corrected fluorescence (dye: Cy5 (3' terminal)): 0.413 ± 0.021

**Q.** Which results are given for “TTTTTTGCTCATGCTGCGCATTTTTTTTTTTTTTTAGAAT [TAAGA]”?
**A.** background-corrected fluorescence (dye: Cy3 (3' terminal)): 0.59 ± 0.032; background-corrected fluorescence (dye: Cy5 (3' terminal)): 0.449 ± 0.024

**Q.** Which background-corrected fluorescence (dye: Cy3 (3' terminal)) does the source give for “TTTTTTGCTGATGCTGCGCATTTTTTTTTTTTTTTACAAT [TAACA]” here?
**A.** The background-corrected fluorescence was 0.525 ± 0.028.

**Q.** What about the background-corrected fluorescence (dye: Cy5 (3' terminal)) of the same sequence?
**A.** Its background-corrected fluorescence is 0.396 ± 0.021.

**Q.** With “TTTTTTGATGCTGATGCGCATTTTTTTTTTTTTTTCACAT [TACAC]” as the sequence, how does the background-corrected fluorescence (dye: Cy3 (3' terminal)) read?
**A.** The background-corrected fluorescence was 0.521 ± 0.02.

**Q.** What about the background-corrected fluorescence (dye: Cy5 (3' terminal)) of the same sequence?
**A.** Its background-corrected fluorescence is 0.368 ± 0.016.

**Q.** Which background-corrected fluorescence (dye: Cy3 (3' terminal)) does the source give for “TTTTTTCAGCATCAGCATGCTTTTTTTTTTTTTTTGTGTA [ATGTG]” here?
**A.** Its background-corrected fluorescence is 0.595 ± 0.019.

**Q.** And the background-corrected fluorescence (dye: Cy5 (3' terminal))?
**A.** The background-corrected fluorescence was 0.434 ± 0.027.

**Q.** For “TTTTTTGCTGATCATGCGCATTTTTTTTTTTTTTTACGAT [TAGCA]”, which background-corrected fluorescence (dye: Cy3 (3' terminal)) is on record?
**A.** Its background-corrected fluorescence is 0.519 ± 0.035.

**Q.** What about the background-corrected fluorescence (dye: Cy5 (3' terminal)) of the same sequence?
**A.** The background-corrected fluorescence was 0.429 ± 0.045.

**Q.** Which results are given for “TTTTTTGAGCATGAGCATGATTTTTTTTTTTTTTTCTCTC”?
**A.** background-corrected fluorescence (dye: Cy3 (3' terminal)): 0.357 ± 0.036; background-corrected fluorescence (dye: Cy5 (3' terminal)): 0.284 ± 0.019

**Q.** With “TTTTTTGCTCATGCTGATGATTTTTTTTTTTTTTTAGACC [CCAGA]” as the sequence, how does the background-corrected fluorescence (dye: Cy3 (3' terminal)) read?
**A.** The background-corrected fluorescence was 0.439 ± 0.034.

**Q.** What about the background-corrected fluorescence (dye: Cy5 (3' terminal)) of the same sequence?
**A.** Its background-corrected fluorescence is 0.331 ± 0.02.

**Q.** What does the source list for “TTTTTTGCTGATGATGCTGATTTTTTTTTTTTTTTACCAC [CACCA]”?
**A.** background-corrected fluorescence (dye: Cy3 (3' terminal)): 0.405 ± 0.01; background-corrected fluorescence (dye: Cy5 (3' terminal)): 0.286 ± 0.018

**Q.** Which background-corrected fluorescence (dye: Cy3 (3' terminal)) does the source give for “TTTTTTGCTGATGCTGATGCTTTTTTTTTTTTTTTACACA” here?
**A.** Its background-corrected fluorescence is 0.469 ± 0.022.

**Q.** And the background-corrected fluorescence (dye: Cy5 (3' terminal))?
**A.** The background-corrected fluorescence was 0.374 ± 0.031.

**Q.** Which background-corrected fluorescence (dye: Cy3 (3' terminal)) does the source give for “TTTTTTCATGATGCTGATCATTTTTTTTTTTTTTTGCACG” here?
**A.** Its background-corrected fluorescence is 0.548 ± 0.028.

**Q.** What about the background-corrected fluorescence (dye: Cy5 (3' terminal)) of the same sequence?
**A.** The background-corrected fluorescence was 0.383 ± 0.035.

**Q.** With “TTTTTTGCTGATGAGCAGCATTTTTTTTTTTTTTTACCTT [TTCCA]” as the sequence, how does the background-corrected fluorescence (dye: Cy3 (3' terminal)) read?
**A.** The background-corrected fluorescence was 0.463 ± 0.018.

**Q.** What about the background-corrected fluorescence (dye: Cy5 (3' terminal)) of the same sequence?
**A.** Its background-corrected fluorescence is 0.351 ± 0.018.

**Q.** Which background-corrected fluorescence (dye: Cy3 (3' terminal)) does the source give for “TTTTTTCATGCGCATGATCATTTTTTTTTTTTTTTGATCG [GCTAG]” here?
**A.** Its background-corrected fluorescence is 0.545 ± 0.016.

**Q.** And the background-corrected fluorescence (dye: Cy5 (3' terminal))?
**A.** Its background-corrected fluorescence is 0.41 ± 0.025.

**Q.** Which background-corrected fluorescence (dye: Cy3 (3' terminal)) does the source give for “TTTTTTGCTGATGAGCATGCTTTTTTTTTTTTTTTACCTA [ATCCA]” here?
**A.** Its background-corrected fluorescence is 0.449 ± 0.018.

**Q.** What about the background-corrected fluorescence (dye: Cy5 (3' terminal)) of the same sequence?
**A.** Its background-corrected fluorescence is 0.366 ± 0.019.

**Q.** For “TTTTTTGCTGATCATGATGATTTTTTTTTTTTTTTACGCC [CCGCA]”, which background-corrected fluorescence (dye: Cy3 (3' terminal)) is on record?
**A.** Its background-corrected fluorescence is 0.467 ± 0.021.

**Q.** What about the background-corrected fluorescence (dye: Cy5 (3' terminal)) of the same sequence?
**A.** The background-corrected fluorescence was 0.393 ± 0.027.

**Q.** Which background-corrected fluorescence (dye: Cy3 (3' terminal)) does the source give for “TTTTTTGCGCAGCATGATGCTTTTTTTTTTTTTTTATTCA [ACTTA]” here?
**A.** Its background-corrected fluorescence is 0.484 ± 0.035.

**Q.** What about the background-corrected fluorescence (dye: Cy5 (3' terminal)) of the same sequence?
**A.** The background-corrected fluorescence was 0.351 ± 0.021.

**Q.** With “TTTTTTGAGCATCAGCATGCTTTTTTTTTTTTTTTCTGTA [ATGTC]” as the sequence, how does the background-corrected fluorescence (dye: Cy3 (3' terminal)) read?
**A.** Its background-corrected fluorescence is 0.571 ± 0.019.

**Q.** What about the background-corrected fluorescence (dye: Cy5 (3' terminal)) of the same sequence?
**A.** Its background-corrected fluorescence is 0.429 ± 0.072.

**Q.** What does the source list for “TTTTTTGAGCATGCTGCGCATTTTTTTTTTTTTTTCTAAT [TAATC]”?
**A.** background-corrected fluorescence (dye: Cy3 (3' terminal)): 0.542 ± 0.015; background-corrected fluorescence (dye: Cy5 (3' terminal)): 0.394 ± 0.027

**Q.** With “TTTTTGCATGCTCATCATCATTTTTTTTTTTTTTTTAGGG [GGGAT]” as the sequence, how does the background-corrected fluorescence (dye: Cy3 (3' terminal)) read?
**A.** Its background-corrected fluorescence is 0.653 ± 0.032.

**Q.** What about the background-corrected fluorescence (dye: Cy5 (3' terminal)) of the same sequence?
**A.** Its background-corrected fluorescence is 0.55 ± 0.037.

**Q.** Which results are given for “TTTTTTCAGCATCATCATGCTTTTTTTTTTTTTTTGTGGA [AGGTG]”?
**A.** background-corrected fluorescence (dye: Cy3 (3' terminal)): 0.702 ± 0.022; background-corrected fluorescence (dye: Cy5 (3' terminal)): 0.606 ± 0.037

**Q.** For “TTTTTGCATGATGATGATCATTTTTTTTTTTTTTTTCCCG [GCCCT]”, which background-corrected fluorescence (dye: Cy3 (3' terminal)) is on record?
**A.** Its background-corrected fluorescence is 0.509 ± 0.013.

**Q.** And the background-corrected fluorescence (dye: Cy5 (3' terminal))?
**A.** Its background-corrected fluorescence is 0.381 ± 0.04.

**Q.** What does the source list for “TTTTTTCATGCGCATGCGCATTTTTTTTTTTTTTTGATAT [TATAG]”?
**A.** background-corrected fluorescence (dye: Cy3 (3' terminal)): 0.532 ± 0.024; background-corrected fluorescence (dye: Cy5 (3' terminal)): 0.382 ± 0.018

**Q.** Which background-corrected fluorescence (dye: Cy3 (3' terminal)) does the source give for “TTTTTTCATGAGCATGCTGATTTTTTTTTTTTTTTGCTAC [CATCG]” here?
**A.** Its background-corrected fluorescence is 0.424 ± 0.02.

**Q.** What about the background-corrected fluorescence (dye: Cy5 (3' terminal)) of the same sequence?
**A.** Its background-corrected fluorescence is 0.338 ± 0.031.

**Q.** What does the source list for “TTTTTTGCGCATGAGCATGCTTTTTTTTTTTTTTTATCTA”?
**A.** background-corrected fluorescence (dye: Cy3 (3' terminal)): 0.482 ± 0.029; background-corrected fluorescence (dye: Cy5 (3' terminal)): 0.368 ± 0.025

**Q.** Which background-corrected fluorescence (dye: Cy3 (3' terminal)) does the source give for “TTTTTTGCTGATGCTGATGATTTTTTTTTTTTTTTACACC [CCACA]” here?
**A.** The background-corrected fluorescence was 0.369 ± 0.022.

**Q.** What about the background-corrected fluorescence (dye: Cy5 (3' terminal)) of the same sequence?
**A.** The background-corrected fluorescence was 0.275 ± 0.012.

**Q.** For “TTTTTTGAGCATGCTGCTGATTTTTTTTTTTTTTTCTAAC [CAATC]”, which background-corrected fluorescence (dye: Cy3 (3' terminal)) is on record?
**A.** The background-corrected fluorescence was 0.407 ± 0.026.

**Q.** And the background-corrected fluorescence (dye: Cy5 (3' terminal))?
**A.** The background-corrected fluorescence was 0.316 ± 0.032.

**Q.** Which results are given for “TTTTTTGATGATGAGCATGATTTTTTTTTTTTTTTCCCTC [CTCCC]”?
**A.** background-corrected fluorescence (dye: Cy3 (3' terminal)): 0.346 ± 0.012; background-corrected fluorescence (dye: Cy5 (3' terminal)): 0.26 ± 0.019

**Q.** Which results are given for “TTTTTTGCTGATGATGAGCATTTTTTTTTTTTTTTACCCT [TCCCA]”?
**A.** background-corrected fluorescence (dye: Cy3 (3' terminal)): 0.446 ± 0.023; background-corrected fluorescence (dye: Cy5 (3' terminal)): 0.34 ± 0.021

**Q.** Which results are given for “TTTTTGCATCATCATGCTCATTTTTTTTTTTTTTTTGGAG [GAGGT]”?
**A.** background-corrected fluorescence (dye: Cy3 (3' terminal)): 0.589 ± 0.02; background-corrected fluorescence (dye: Cy5 (3' terminal)): 0.494 ± 0.035

**Q.** Which results are given for “TTTTTGCATGCTGATGCTGATTTTTTTTTTTTTTTTACAC [CACAT]”?
**A.** background-corrected fluorescence (dye: Cy3 (3' terminal)): 0.425 ± 0.017; background-corrected fluorescence (dye: Cy5 (3' terminal)): 0.312 ± 0.014

**Q.** For “TTTTTTGAGCAGCATGCTGCTTTTTTTTTTTTTTTCTTAA [AATTC]”, which background-corrected fluorescence (dye: Cy3 (3' terminal)) is on record?
**A.** The background-corrected fluorescence was 0.562 ± 0.019.

**Q.** What about the background-corrected fluorescence (dye: Cy5 (3' terminal)) of the same sequence?
**A.** The background-corrected fluorescence was 0.427 ± 0.039.

**Q.** For “TTTTTTGATGAGCATGCTCATTTTTTTTTTTTTTTCCTAG [GATCC]”, which background-corrected fluorescence (dye: Cy3 (3' terminal)) is on record?
**A.** The background-corrected fluorescence was 0.532 ± 0.019.

**Q.** What about the background-corrected fluorescence (dye: Cy5 (3' terminal)) of the same sequence?
**A.** The background-corrected fluorescence was 0.414 ± 0.023.
